# Laboratory results reported in patent US20070128678A1.
# T1: PknB1-279 (His-tagged catalytic kinase domain of Mycobacterium tuberculosis Ser/Thr protein kinase PknB, aa 1-279), P9WI81
# T1 chain: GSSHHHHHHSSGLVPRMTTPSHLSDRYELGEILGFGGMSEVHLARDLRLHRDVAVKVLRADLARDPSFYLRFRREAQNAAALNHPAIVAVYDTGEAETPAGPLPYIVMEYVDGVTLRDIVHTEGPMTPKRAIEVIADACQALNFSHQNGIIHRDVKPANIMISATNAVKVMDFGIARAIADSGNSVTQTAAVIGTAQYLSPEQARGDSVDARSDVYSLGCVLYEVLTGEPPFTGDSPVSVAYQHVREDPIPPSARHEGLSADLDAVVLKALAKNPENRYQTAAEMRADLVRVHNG
# Experiments:
# [1] = target: PknB1-279 (His-tagged catalytic kinase domain of Mycobacterium tuberculosis Ser/Thr protein kinase PknB, aa 1-279) (Mycobacterium tuberculosis) (UniProt P9WI81); test: cell-based or functional assay
# [2] = target: T1, PknB1-279 (His-tagged catalytic kinase …)
molecule,measurement,setting,value
"PstP1-240 (His-tagged catalytic domain of Mycobacterium tuberculosis Ser/Thr protein phosphatase PstP, aa 1-240) (from UniProt P9WHW4 1-240) (enzyme)",MALDI-TOF mass of PknB1-279 after phosphatase treatment (phosphate groups removed) (phosphate groups),[1],3
"PstP1-240 (His-tagged catalytic domain of Mycobacterium tuberculosis Ser/Thr protein phosphatase PstP, aa 1-240) (protein) MARVTLVLRYAARSDRGLVRANNEDSVYAGARLLALADGMGGHAAGEVASQLVIAALAHLDDDEPGGDLLAKLDAAVRAGNSAIAAQVEMEPDLEGMGTTLTAILFAGNRLGLVHIGDSRGYLLRDGELTQITKDDTFVQTLVDEGRITPEEAHSHPQRSLIMRALTGHEVEPTLTMREARAGDRYLLCSDGLSDPVSDETILEALQIPEVAESAHRLIELALRGGGPDNVTVVVADVVD","dephosphorylation of autophosphorylated [33P]-PknB1-279 by PstP (SDS-PAGE, autoradiography, band shift)",[2],PstP is capable of dephosphorylating PknB
same,kinase activity of PknB on MBP with thio-γATP after preincubation with PstP,[2],prior dephosphorylation of PknB by PstP inhibits kinase activity on MBP
